Measured values: article PMC12420824, “Discovery of a selective alpha-kinase 1 inhibitor for the rare genetic disease ROSAH syndrome” (Nature Communications, 2025)

Experiments:
[1] = target: T1, human ALPK1 N-terminal regulatory domain aa. 1-446 (human, UniProt Q96QP1-1 1-446); assay: crystal structure; mALPK1-KD and ALPK1-ND mixed, complex purified by size exclusion chromatography, 10 mg/ml; hanging drop vapor diffusion, 12% PEG 3350, 0.1 M CBTP pH 8.2; details: both partners purified
T1 construct: The sentence names the His-TEV tag before the mouse kinase domain; it is read here as applying to both constructs; also called ALPK1-ND; human N-terminal regulatory domain; source: E. coli, purified (Ni column; His-tag cleaved with TEV protease)
T1 sequence (Q96QP1 1-446): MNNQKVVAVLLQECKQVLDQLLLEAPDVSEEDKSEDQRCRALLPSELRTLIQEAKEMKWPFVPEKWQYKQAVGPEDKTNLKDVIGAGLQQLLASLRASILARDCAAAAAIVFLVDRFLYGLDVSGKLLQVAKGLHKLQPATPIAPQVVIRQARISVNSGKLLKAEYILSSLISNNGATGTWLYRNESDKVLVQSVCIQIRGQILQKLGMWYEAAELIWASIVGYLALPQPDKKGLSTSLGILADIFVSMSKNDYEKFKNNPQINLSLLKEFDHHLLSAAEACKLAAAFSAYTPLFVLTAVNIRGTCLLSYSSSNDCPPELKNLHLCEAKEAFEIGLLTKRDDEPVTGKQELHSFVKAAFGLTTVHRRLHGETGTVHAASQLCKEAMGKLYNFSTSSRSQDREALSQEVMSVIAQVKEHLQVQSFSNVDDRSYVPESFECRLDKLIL

[2] = target: the molecule itself; assay: AlphaScreen or HTRF; TR-FRET after kinase reaction (260 nM HA-His-TIFA, 2 nM ALPK1, 6.25 uM ATP, 20 nM ADP-D-heptose, 1.5 h, 27 °C); anti-HA-Eu cryptate and anti-HA-d2 bound to the same TIFA oligomer, 26 °C for 1 h

Binder | binding result [1] | binding result [2]
Mouse ALPK1 kinase domain aa. 949-1231 (domain or fragment, Used for crystallography in complex with the human N-terminal domain (a complex of two species' forms); also called mALPK1-KD; mouse kinase domain; source: E. coli, purified (Ni column; His-tag cleaved with TEV protease)) not shown | binds | 
recombinant HA-His-tagged TIFA, phosphorylated by ALPK1 (natural protein, human, UniProt Q96CG3 1-184, looked up, phosphorylated by recombinant ALPK1 in the kinase reaction; residues not stated for this experiment, TIFA, human; source: E. coli, purified (Ni column, desalted); phosphorylated in vitro by recombinant ALPK1; not shown: HA, N-terminal, kept) MTSFEDADTEETVTCLQMTVYHPGQLQCGIFQSISFNREKLPSSEVVKFGRNSNICHYTFQDKQVSRVQFSLQLFKKFNSSVLSFEIKNMSKKTNLIVDSRELGYLNKMDLPYRCMVRFGEYQFLMEKEDGESLEFFETQFILSPRSLLQENNWPPHRPIPEYGTYSLCSSQSSSPTEMDENES |  | binds
